According to patent publication US20230255948A1:

What was measured:
[1] = biological target: α9β1 integrin on mouse RAW macrophage cells (mouse) (UniProt B8JK39); assay: cell-based or functional assay
[2] = biological target: α4β1 integrin on mouse B16 melanoma cells and mouse RAW macrophage cells (mouse) (UniProt Q00651); assay: cell-based or functional assay
α4β1 integrin on mouse B16 melanoma cells and mouse RAW macrophage cells (mouse), sequence (Q00651 41-1039, chain 1 of 2): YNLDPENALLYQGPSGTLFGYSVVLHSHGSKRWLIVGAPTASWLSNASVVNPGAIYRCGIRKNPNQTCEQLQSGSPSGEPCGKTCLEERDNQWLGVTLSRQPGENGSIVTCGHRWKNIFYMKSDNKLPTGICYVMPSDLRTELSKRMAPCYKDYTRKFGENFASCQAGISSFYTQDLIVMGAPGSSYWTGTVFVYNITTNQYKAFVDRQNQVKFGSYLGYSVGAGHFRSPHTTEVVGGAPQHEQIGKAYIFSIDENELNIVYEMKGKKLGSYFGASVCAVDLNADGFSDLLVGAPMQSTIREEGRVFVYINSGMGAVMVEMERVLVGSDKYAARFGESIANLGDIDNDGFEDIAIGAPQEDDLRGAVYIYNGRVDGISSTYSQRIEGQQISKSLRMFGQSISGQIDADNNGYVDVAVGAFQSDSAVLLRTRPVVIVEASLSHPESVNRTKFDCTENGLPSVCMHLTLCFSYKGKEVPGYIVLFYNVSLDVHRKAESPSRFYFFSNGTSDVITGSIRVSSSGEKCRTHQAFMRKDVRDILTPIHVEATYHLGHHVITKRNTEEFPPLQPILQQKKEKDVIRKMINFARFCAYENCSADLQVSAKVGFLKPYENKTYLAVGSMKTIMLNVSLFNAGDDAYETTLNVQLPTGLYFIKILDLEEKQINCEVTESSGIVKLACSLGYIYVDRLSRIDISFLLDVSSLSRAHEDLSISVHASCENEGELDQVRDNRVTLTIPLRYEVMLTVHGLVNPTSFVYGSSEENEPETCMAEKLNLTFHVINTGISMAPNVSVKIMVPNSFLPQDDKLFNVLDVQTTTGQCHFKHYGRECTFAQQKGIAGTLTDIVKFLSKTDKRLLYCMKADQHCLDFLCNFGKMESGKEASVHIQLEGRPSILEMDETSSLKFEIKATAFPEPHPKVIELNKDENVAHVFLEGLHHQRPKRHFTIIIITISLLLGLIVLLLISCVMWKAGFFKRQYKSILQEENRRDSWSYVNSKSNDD
α4β1 integrin on mouse B16 melanoma cells and mouse RAW macrophage cells (mouse), sequence (P09055 21-798, chain 2 of 2, further chain): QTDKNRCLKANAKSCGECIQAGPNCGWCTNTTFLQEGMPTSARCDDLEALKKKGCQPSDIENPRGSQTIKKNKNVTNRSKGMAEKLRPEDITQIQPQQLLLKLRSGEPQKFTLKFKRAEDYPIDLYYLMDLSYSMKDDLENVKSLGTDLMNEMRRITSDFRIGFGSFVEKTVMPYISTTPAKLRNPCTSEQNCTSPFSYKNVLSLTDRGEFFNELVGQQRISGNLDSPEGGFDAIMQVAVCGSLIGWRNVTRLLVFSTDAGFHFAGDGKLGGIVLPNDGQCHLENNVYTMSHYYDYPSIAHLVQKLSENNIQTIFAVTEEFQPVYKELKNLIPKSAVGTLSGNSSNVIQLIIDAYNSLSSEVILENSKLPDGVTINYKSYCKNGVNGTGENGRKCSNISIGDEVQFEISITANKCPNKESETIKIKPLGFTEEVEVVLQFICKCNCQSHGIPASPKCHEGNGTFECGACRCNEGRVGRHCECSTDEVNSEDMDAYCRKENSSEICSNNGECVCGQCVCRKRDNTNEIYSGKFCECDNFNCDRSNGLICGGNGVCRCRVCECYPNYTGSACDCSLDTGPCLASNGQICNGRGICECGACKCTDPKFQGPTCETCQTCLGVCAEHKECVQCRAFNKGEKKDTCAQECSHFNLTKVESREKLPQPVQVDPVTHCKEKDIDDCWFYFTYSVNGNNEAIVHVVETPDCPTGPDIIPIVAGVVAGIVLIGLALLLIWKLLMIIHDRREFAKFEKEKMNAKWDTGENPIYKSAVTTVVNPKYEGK

α9β1 integrin on mouse RAW macrophage cells (mouse), sequence (B8JK39 29-1036, chain 1 of 2): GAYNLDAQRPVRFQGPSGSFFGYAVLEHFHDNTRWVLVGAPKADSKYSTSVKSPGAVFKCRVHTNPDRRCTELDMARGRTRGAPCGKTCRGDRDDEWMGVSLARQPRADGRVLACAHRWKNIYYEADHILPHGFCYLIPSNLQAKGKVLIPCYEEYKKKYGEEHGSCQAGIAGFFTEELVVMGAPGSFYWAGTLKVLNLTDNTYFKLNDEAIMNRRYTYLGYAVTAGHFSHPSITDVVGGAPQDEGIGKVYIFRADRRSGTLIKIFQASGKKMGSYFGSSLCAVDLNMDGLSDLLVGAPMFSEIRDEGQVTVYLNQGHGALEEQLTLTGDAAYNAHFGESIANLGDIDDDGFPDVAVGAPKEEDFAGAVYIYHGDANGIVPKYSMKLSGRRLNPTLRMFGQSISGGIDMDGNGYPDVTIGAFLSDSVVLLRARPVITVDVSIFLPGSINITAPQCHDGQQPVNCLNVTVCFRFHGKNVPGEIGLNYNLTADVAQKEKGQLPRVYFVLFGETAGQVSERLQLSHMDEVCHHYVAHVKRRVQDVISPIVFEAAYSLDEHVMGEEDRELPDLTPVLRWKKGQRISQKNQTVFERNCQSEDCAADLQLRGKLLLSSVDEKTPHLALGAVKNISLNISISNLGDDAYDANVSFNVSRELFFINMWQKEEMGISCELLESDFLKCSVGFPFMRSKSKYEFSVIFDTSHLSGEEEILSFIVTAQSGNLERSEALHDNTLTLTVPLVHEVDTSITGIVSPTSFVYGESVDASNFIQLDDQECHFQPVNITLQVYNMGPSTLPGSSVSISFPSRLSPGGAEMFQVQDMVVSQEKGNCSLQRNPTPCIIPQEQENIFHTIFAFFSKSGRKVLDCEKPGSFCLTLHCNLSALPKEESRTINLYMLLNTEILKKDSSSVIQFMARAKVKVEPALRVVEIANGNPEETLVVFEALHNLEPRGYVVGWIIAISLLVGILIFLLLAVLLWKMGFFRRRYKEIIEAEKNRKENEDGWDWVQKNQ
α9β1 integrin on mouse RAW macrophage cells (mouse), sequence (P09055 21-798, chain 2 of 2, further chain): as the sequence (P09055 21-798, chain 2 of 2, further chain) above

## OPN-RRAA (OPN-R in which the RGD sequence has been mutated to RAA) (ligand)
[1]
  PGE2 secretion in RAW cells: 4.2 fold
[2]
  PGE2 secretion in RAW cells: 4.2 fold
